Literature values, collected in PMC10426772.
Values belong to the substance of their own block, whether it stands above or below them.

How the values were obtained:
[1] = target: IGF receptor (human BBB) (Homo sapiens) (UniProt P08069); assay: radio-receptor assay
[2] = target: IGF receptor (IGF1R, brain capillary) (Homo sapiens) (UniProt P08069); assay: radio-receptor assay with [125I]-IGF2
[3] = target: leptin receptor (Homo sapiens) (UniProt P48357); assay: radio-receptor assay
[4] = target: insulin receptor (HIR, brain capillary) (Homo sapiens) (UniProt P06213); assay: radio-receptor assay with [125I]-insulin

insulin, sequence (P01308 90-110): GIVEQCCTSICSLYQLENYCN
leptin, sequence (P41159 22-167): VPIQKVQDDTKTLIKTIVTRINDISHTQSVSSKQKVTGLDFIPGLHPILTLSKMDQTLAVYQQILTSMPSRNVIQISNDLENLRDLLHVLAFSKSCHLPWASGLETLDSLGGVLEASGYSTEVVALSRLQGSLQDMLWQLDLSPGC
leptin receptor (Homo sapiens), sequence (P48357 22-839): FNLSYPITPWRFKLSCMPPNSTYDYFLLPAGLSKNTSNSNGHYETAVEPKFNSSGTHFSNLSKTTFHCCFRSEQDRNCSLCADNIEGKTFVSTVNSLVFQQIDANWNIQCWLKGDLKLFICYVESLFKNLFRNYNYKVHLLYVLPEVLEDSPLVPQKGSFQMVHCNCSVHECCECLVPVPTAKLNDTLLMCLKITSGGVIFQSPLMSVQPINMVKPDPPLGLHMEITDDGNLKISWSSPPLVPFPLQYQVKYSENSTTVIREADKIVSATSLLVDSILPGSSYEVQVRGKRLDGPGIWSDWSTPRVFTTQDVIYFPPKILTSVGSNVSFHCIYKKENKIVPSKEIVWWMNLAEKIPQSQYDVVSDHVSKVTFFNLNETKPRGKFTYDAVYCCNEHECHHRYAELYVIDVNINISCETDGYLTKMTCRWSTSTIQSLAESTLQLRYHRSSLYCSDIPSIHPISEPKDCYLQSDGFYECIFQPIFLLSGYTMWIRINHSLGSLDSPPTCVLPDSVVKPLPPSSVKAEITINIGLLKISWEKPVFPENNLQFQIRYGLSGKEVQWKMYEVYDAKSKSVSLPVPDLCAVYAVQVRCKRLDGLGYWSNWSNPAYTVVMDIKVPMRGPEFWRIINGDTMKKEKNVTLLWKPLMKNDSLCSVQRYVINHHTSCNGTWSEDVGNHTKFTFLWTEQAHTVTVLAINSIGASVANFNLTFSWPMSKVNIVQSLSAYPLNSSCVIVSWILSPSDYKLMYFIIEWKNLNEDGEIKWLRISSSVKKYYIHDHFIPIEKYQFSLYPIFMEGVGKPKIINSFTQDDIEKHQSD

Kd [1]: 1.1 nM | Kd [2]: 1.1 nM
Substance: IGF2 (from UniProt P01344)

Kd [3]: 5.1 nM
Substance: leptin (from UniProt P41159)

Kd [4]: 1.2 nM
Substance: insulin (from UniProt P01308)
